Results published in patent US20240131059A1 (FUNDACI INSTITUT D INVESTIGACI BIOM DICA DE BELLVITGE …, published 2024).

B1: PRP6-NO, recombinant polypeptide formed by the CCP6 domain of C4BP(β-) fused at its C-terminus to a mutated C4BP(β-) oligomerization domain unable to … (other)
chain: HHHHHHLCCPEPKLNNGEITQHRKSRPANHCVYFYGDEISFSCHETSRFSAICQGDGTWSPRTPSCGDETPEGAEQVLTGKRLMQALPNPEDVKMALEVYKLSLEIEQLELQ
notes: Produced in Expi293 cells; Monomer of 12.7 kDa
B2: mature recombinant polypeptide forming PRP6-HO7 (single monomer chain, 14.3 kDa) (other)
chain: HHHHHHLCCPEPKLNNGEITQHRKSRPANHCVYFYGDEISFSCHETSRFSAICQGDGTWSPRTPSCGDETPEGCEQVLTGKRLMQCLPNPEDVKMALEVYKLSLEIEQLELQRDSARQSTLDKEL
notes: Same chain as in m1; also called PRP6-HO7 monomer chain

What was measured:
[1] = target: the molecule itself; assay: SDS-PAGE under non-reducing conditions, Coomassie Blue staining and Western blot (self-association)
Description: (§1) For Western blot analysis, PRP-based proteins were resolved on 4-12% gradient SDS-PAGE (NuPAGE Bis-Tris 4-12% Mini Gels, Invitrogen) under reducing and non-reducing conditions and transferred to PVDF membrane. After blocking, the membrane was probed with primary antibodies: 1:2000 dil. polyclonal PK9008 rabbit anti-C4BP (a gift from Anna Blom), and 1:4000 dil. 6×His Monoclonal Antibody (Clontech, Mountain View, CA, USA), followed by the addition of 1:2000 dil. polyclonal Goat Anti-Rabbit IgG HRP (P0448, Dako, Agilent, Santa Clara. CA, USA), and 1:2000 dil. polyclonal Goat Anti-Mouse IgG HRP (P0447, Dako, Agilent, Santa Clara, CA, USA), respectively. Detection was performed with enhanced chemiluminescence (ECL) (Pierce, ThermoFischer, Carlsbad, CA, USA) using ChemiDoc Imager (Bio-Rad, Hercules, CA, USA).
(§2) In this regard, and to assess whether the C4BP CCP6 domain alone as a monomer or, conversely, in an heptavalent oligomerized form analogous to its physiological origin, would preserve the anti-inflammatory and immunomodulatory activities ascribed to PRP-HO7 (Olivar et al. (2013) J. Immunol. 190: 2857-2872). PRP6-HO7 and PRP6-NO were produced in HEK293 cells and were purified from its supernatants (FIG. 3). […]

[2] = target: the molecule itself; assay: SDS-PAGE under reducing and non-reducing conditions, Coomassie Blue staining and Western blot (self-association into the heptamer)
Description: as §1, §2

Protein | binding result [1] | binding result [2]
B1 | no binding | 
B2 |  | binds
